# Results: the nanobody polyreactivity screen of Harvey et al. (2022)
# Assay: yeast display, Sf9 membrane polyspecificity reagent, FACS + sequencing; frameworks hold sequencing errors
# Method in brief: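 Synthetic nanobody libraries on Saccharomyces cerevisiae BJ5465 were galactose-induced for 36–48 hours, stained 1 hour at 4 °C with 10% biotinylated, detergent-solubilized Sf9 membrane reagent and enriched on streptavidin microbeads. FACS then separated cells into low and high (top ~1%) gates by anti-HA (expression) and streptavidin (reagent binding) fluorescence. Genes were colony-PCR amplified, MiSeq 2 × 250 sequenced and CDR-length filtered. A clone's polyreactivity label is that of its gate of origin.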
row,Sequence,polyreactivity (PSR sort gate)
1,QVQLVESGGGLVQAGGSLRLSCAASGRTFRRNTMGWYRQAPGKERELVAAISNRGTSTYYADSVKGRFTFSRDNAKNTVYLQMNSLKPEDTAVYYCAAREKYISYSYYYWGQGTQVTVSS,high polyreactivity
2,QVQLVESGGGLVQAGGSLRLSCAASGRTFYVNTMGWYRPAPGKEREFVAAITWRDGSTYYADSVKGRFTISRDNAKNTVYPQMNSLKPEDTAVYYCAARNSHDGYYDEYYYWGQGTQVTVSS,low polyreactivity
3,QVQLVESGGGLVQAGGSLRLSCAASGSIFKAYAMGWYSQAPGKERELVAAITWSGGSTYYADSVKGRFTISRDNAKYTVYLQMNSLKPEDTAVYYCAADRLEGYYEDDATGFDYWGQGTQVTVSS,low polyreactivity
4,QVQLVESGGGLVQAGGSLRLSCAASGRIFNRYAMGWYRQAPGKERELVAAITSGGDTNYADSVKGRFTISRDNAKNTVYLQMNSLKPEETAVYYCAAYLYPWYSRYYYWGQGTQVTVSS,high polyreactivity
5,QVQLVESGGGLVQAGGSLRFSCAASGSICGGYAMGWYRQAPGKERELVASITKSGDSTYADSVKGRFTISRDNAKNTVYLQMNSLKPEDTAVYYSAADSTFGNFDYWGQGTQVTVSS,low polyreactivity
6,QVQLVESGGGLVQAGGSLRLSCAASGFTIYLYTMGWYRQAPGKERELVATISWSGGSTYYADSVKGRFTISRDNAKNNVYLHMNSLKPEDTAVYYCAKAYNGRYTWRYDYWGQGTQVTVSS,high polyreactivity
7,QVQLQESAGGLVQAGGSLRLRCSASGYISCDASMGWYRQAPRKERELAASITKGSSTNYADSVKGRFTIRDNAKNSVYLQMNSLKPEDTAVFYCAVTYPYWGDYTYWGQGTQVTVSS,low polyreactivity
8,QVQLVESGGGLVQAGGSLPLSCAASGRIFVVYAMGWYRQAPGKERDLVAGISWTDGRTYYADSVKGRFTISRDNAKNTVYLLMNSLKPEDTAVYYCNKARTSQYHHTYWRTYGYWGQGTQVTLSS,low polyreactivity
9,QVQLLETGGGLVQAGGSLRLSFAASGSIFYRYSMVWYRQAPGKERELVAAISYSGGSTYYADSVKGRFTISRDNAKNTVYLQMNSLKPEDTAVYYCAKDYPPPISDYSRYYGYGYWGQGTQVTVSS,low polyreactivity
10,QVQLVESGGGLVQAGGSLRLSCAASGTFYKYAMGWYRQAPGKERELVAAISWRGGRTYADSVKGRFTISRDNANNTVYLQMNSLKPEDTAVYYCAAEYRYDWYTYGYWGQGTQVTVSS,high polyreactivity
11,QVQLVESGGGLVQAGGSLRLSCAASGRTALIYAMGWYRQAPGKERELVAAITASGGNTDYADSVKGRFTISRDNAMNTVYLQMNSLKPEDTAVYYCNKSRYDGGSGYDYWGQGTQVTVSS,low polyreactivity
12,QVQLLESGGGLVQSGGSLRLSCAASGFIFYSYAMGGYRQAPGKERELVAAITEDGDSTYYADSVKWRFTISRDNAKNTVYLQMNSLNPEDTAGYYCNTDLTFNGTSGAYDYWGQGTQVTVSS,low polyreactivity
13,QVQLVESGGGLVQAGRSLRLSCAASGRIFISYTMGWYRPAPGKERELVAGIDSSGTSTYYADSVKGRFTISRDYAKNTVYLQMNSLIPEDTAVYYCNVVGNWKDTSTELDYWGQGTQVTVSS,low polyreactivity
14,QVQLVESGGGLVQAGGSLRLSCAASGRTFNWYAMGWYRQAPGKERELVAAISSRGGSTYADSVKGRFTISRDNAKNTVYLQMNSLKPEDTAVYYCAARHHGTKYDYWGLGTQVTVSS,low polyreactivity
15,QVQLVESGGGLVQAGGSLSLSCAASGGTFSRYGMGWYRQAPGKEREMVAAISRSGGSTYYADSVKWRFTISRDNAKNTVYLQMNSLKPEDTAVYYCAAKLPIPYTTGRYAAMDYWGQGTQVTVSS,high polyreactivity
16,QVQLVESGGALVQAGGSLRLSCAASGSIFLFNTMGWYRQAPGKETELVAVISGGGITYYADSVKGRFTISRDNAKNTVYLQMNSLKPEDTAVYYCAADGGYWSQYDYWGQGTQVTVSS,low polyreactivity

row,Sequence,polyreactivity (PSR sort gate)
1,QVQLVESGGGLVQAGGSLRLSCSASGSIFKRNAMGWYRQAPGKERELVAAITTRGGRTYYADSVKGRFTISRDNAKNTVYLQLNSLKPEDTAVYFCAVVPAAGSGGYGYSRYDYWGQGSQVTVSS,high polyreactivity
2,QVQLVESGGGLVQAGGSLRLRCAASGRTLSSYAMGWYREAPGKERELVAAITRSGGSTYYADSVNGRFTISRDIAKNTVYLQMNSLKPEDTAVYYCAADGYRRYGSWGQGTQVTVSS,high polyreactivity
3,QVQLVESGGGLVQAGGSLRLSCAASGSIFGPYAMGWYRQAPGKERELVARITLSAGNTYYADSVKGRFTISRDNAKNTVYLQMNSLKPEDTAVYYCAAKVYSKYWFVGNYWGQGRQVTVSS,high polyreactivity
4,QVQLVESVGGLVQAGGSLRLSCAASGRTFGTYAMGWYRQAPGKERELVAAISTRGGRTFYADSVKGRFTISRDNAKNTVYLQMNSLKPEDTAVYYCAKGVFTWGVFRVGIRDDYWGQGTQVTVSS,high polyreactivity
5,QVQLVESGGGLVQAGGSLRLSSAASGITYYGYAMGWYRQAPGKERELVAAISKSGGSTHYADSVKGRFTISRDNAINTVYLQMYRLKPEDTAVYYCAAAYWTRLRRMDYWGQGTQVTVSS,low polyreactivity
6,QVQLVESGGGLVQAGGSLRLSCAASGITVRLYAMGWYRQAPGKERELVATIDWSGDSTYYADSVKGRFTISRDNAKNTVYLQMHSLKPEDTAVYYCNAVYVPVGINLGEYDYWGQGTQVTVSS,low polyreactivity
7,QVQLVESGGGLVHAGGSLRLSCAASGRTFAPYTMGWYRPAPGKERELVASISTGGSTYYADSVKGRFTISRYNAKNTVYLQMNSLKPEDTAVYYCAATGWAYGYGYGYWGQGTQVTVSS,low polyreactivity
8,QVQLQESGGGQVQAGGSLRPSCAASGSISDRVPMGWYRQAPGEERELVATTVLGATTNYADSVKGRFTISRGNAKNTVYLQMNSLKPEETAVYYCAAPLRYDKGFSYWGEGTQVTVSS,low polyreactivity
9,QVQLVESGGGLVQAGGSLRLSCAASGSTFVKYAMGWYRQAPGKERELVATITRRGGNTYYADSVKGRFTISRDNAKYTVYLQMNSLKPEDTAVYYCAKYSRTKAFEYWGQGTQVTVSS,high polyreactivity
10,QVQLVESGGGLVQAGGSLRLSCAASGLIFYSYAMGWYRQAHAKERELVAAITGGGSTNYADSVKGRFTISRDNAKNTVYLQMNSLKPEDTAVYYCAAQAYVEGVYRYDYWGQGTQVTVSS,low polyreactivity
11,QVQLVESGGGLVQAGGSLRLICAASGSIFIGNTMGWYRQAPGKERELVATIRRSGSRTYYADSVKGRFTISRDNAKNTVYLQMNSLKPEDPAVYYCNAEGVGRYSPVSHTFDYWGQGTQVTLSS,low polyreactivity
12,QVQLVESGGGLVQAGGRLRLSCAASGSIFNSYDMGWYRQAPGKERELVAAINSGGSTYYADSVKGRFTISRDNAKNTDYFQMNSLKPEDTAVYYCAARVVIRYPYTKGYYYWGQGTQVTVSS,high polyreactivity
13,QVQLVESGGGLVQAGGSLRLSCSASGRTSVLYAMGWYRQAPGKEREFVAAITWNSGSTYYADSVKGRFTISRDHAKNTVYLQMISLKPEDTAVYYCNADYYFSSYRSTYDYWGQGTQVTVSS,low polyreactivity
14,QVQLVESVGGLVQAGGSLRLSCAASGRTFFYNAMGWYRQAPGKERELVAAIDWSGDSTYYADSVKGRFTISRDNAKNTVYLQMNSLKPEDTAVYYCAARRKNRRDYDYYYWGQGTQVTVSS,high polyreactivity
15,QVQLVESGGGLVQAGGSLRLSCAASGSIFSTYAMGWYRQAPGKERELVAAISSSGSTYYADSVKGRFTLSRDNAKNTVYLQMNSLKPEDTAVYYCAAGKYRRTSRYRYDSWGQGTQVTVSS,high polyreactivity
16,QVQLVESGGGLVQAGGSLRLSCAASRRIFDVNSMGWYRQAPGKERELVAAISSGGNTKYADSVKGRFTISRDNAKNSVYLQMNSLKPEDTAVYYCIADGKAAGDYDYWGQGTQVTVSS,low polyreactivity
